The RNAGym collection of RNA variant scans (doi:10.1021/acssynbio.7b00057)

B1: Pistol ribozyme (parent)
chain: GGGUCGUUGUUCCAUAAUCGCGUGGAUAUGGCACGCAAGUUUCUACCGGGCACCGUAAAUGUCCGACUGGAGCCGUUCGGGCGGCUAUAAACAGACCUCAGGCCCGAAGCGUGGCGGCACCUGCCGCCGGUGGUAAAAAAGAUCGGAAGAGCACACGUCU

Variants of: B1
Assay: aptazyme ON/OFF ratio, guanine; higher = stronger switching; co-transcriptional cleavage with and without guanine

Question: With GGGUCGACAGCUCAUAAUCGCGUGGAUAUGGCACGCAAGUUUCUACCGGGCACCGUAAAUGUCCGACUGGAGCCGUUCGGGCGGCUAUAAACAGACCUCAGGCCCGAAGCGUGGCGGCACCUGCCGCCGGUGGUAAAAAAGAUCGGAAGAGCACACGUCU [U7A U8C G9A U10G U11C C12U] as the variant, how does the “aptazyme ON/OFF ratio” value read?
Answer: Its value is 1.06.

Question: Which “aptazyme ON/OFF ratio” value does the source give for GGGUCGACAGCACAUAAUCGCGUGGAUAUGGCACGCAAGUUUCUACCGGGCACCGUAAAUGUCCGACUGGAGCCGUUCGGGCGGCUAUAAACAGACCUCAGGCCCGAAGCGUGGCGGCACCUGCCGCCGGUGGUAAAAAAGAUCGGAAGAGCACACGUCU [U7A U8C G9A U10G U11C C12A] here?
Answer: Its value is 1.19.

Question: Which “aptazyme ON/OFF ratio” value does the source give for GGGUCGACAGCGCAUAAUCGCGUGGAUAUGGCACGCAAGUUUCUACCGGGCACCGUAAAUGUCCGACUGGAGCCGUUCGGGCGGCUAUAAACAGACCUCAGGCCCGAAGCGUGGCGGCACCUGCCGCCGGUGGUAAAAAAGAUCGGAAGAGCACACGUCU [U7A U8C G9A U10G U11C C12G] here?
Answer: The value was 1.22.

Question: Which “aptazyme ON/OFF ratio” value does the source give for GGGUCGACAGGCCAUAAUCGCGUGGAUAUGGCACGCAAGUUUCUACCGGGCACCGUAAAUGUCCGACUGGAGCCGUUCGGGCGGCUAUAAACAGACCUCAGGCCCGAAGCGUGGCGGCACCUGCCGCCGGUGGUAAAAAAGAUCGGAAGAGCACACGUCU [U7A U8C G9A U10G U11G] here?
Answer: The value was 1.08.

Question: For GGGUCGACAGCCCAUAAUCGCGUGGAUAUGGCACGCAAGUUUCUACCGGGCACCGUAAAUGUCCGACUGGAGCCGUUCGGGCGGCUAUAAACAGACCUCAGGCCCGAAGCGUGGCGGCACCUGCCGCCGGUGGUAAAAAAGAUCGGAAGAGCACACGUCU [U7A U8C G9A U10G U11C], which “aptazyme ON/OFF ratio” value is on record?
Answer: The value was 1.04.

Question: Which “aptazyme ON/OFF ratio” value does the source give for GGGUCGACAGCUGAUAAUCGCGUGGAUAUGGCACGCAAGUUUCUACCGGGCACCGUAAAUGUCCGACUGGAGCCGUUCGGGCGGCUAUAAACAGACCUCAGGCCCGAAGCGUGGCGGCACCUGCCGCCGGUGGUAAAAAAGAUCGGAAGAGCACACGUCU [U7A U8C G9A U10G U11C C12U C13G] here?
Answer: Its value is 1.2.

Question: For GGGUCGACAGCUUAUAAUCGCGUGGAUAUGGCACGCAAGUUUCUACCGGGCACCGUAAAUGUCCGACUGGAGCCGUUCGGGCGGCUAUAAACAGACCUCAGGCCCGAAGCGUGGCGGCACCUGCCGCCGGUGGUAAAAAAGAUCGGAAGAGCACACGUCU [U7A U8C G9A U10G U11C C12U C13U], which “aptazyme ON/OFF ratio” value is on record?
Answer: Its value is 1.16.

Question: For GGGUCGACAGCUAAUAAUCGCGUGGAUAUGGCACGCAAGUUUCUACCGGGCACCGUAAAUGUCCGACUGGAGCCGUUCGGGCGGCUAUAAACAGACCUCAGGCCCGAAGCGUGGCGGCACCUGCCGCCGGUGGUAAAAAAGAUCGGAAGAGCACACGUCU [U7A U8C G9A U10G U11C C12U C13A], which “aptazyme ON/OFF ratio” value is on record?
Answer: Its value is 1.16.

Question: Which “aptazyme ON/OFF ratio” value does the source give for GGGUCGACAGACUAUAAUCGCGUGGAUAUGGCACGCAAGUUUCUACCGGGCACCGUAAAUGUCCGACUGGAGCCGUUCGGGCGGCUAUAAACAGACCUCAGGCCCGAAGCGUGGCGGCACCUGCCGCCGGUGGUAAAAAAGAUCGGAAGAGCACACGUCU [U7A U8C G9A U10G U11A C13U] here?
Answer: Its value is 1.04.

Question: With GGGUCGACAGCGAAUAAUCGCGUGGAUAUGGCACGCAAGUUUCUACCGGGCACCGUAAAUGUCCGACUGGAGCCGUUCGGGCGGCUAUAAACAGACCUCAGGCCCGAAGCGUGGCGGCACCUGCCGCCGGUGGUAAAAAAGAUCGGAAGAGCACACGUCU [U7A U8C G9A U10G U11C C12G C13A] as the variant, how does the “aptazyme ON/OFF ratio” value read?
Answer: The value was 1.21.

Question: Which “aptazyme ON/OFF ratio” value does the source give for GGGUCGACAGCGUAUAAUCGCGUGGAUAUGGCACGCAAGUUUCUACCGGGCACCGUAAAUGUCCGACUGGAGCCGUUCGGGCGGCUAUAAACAGACCUCAGGCCCGAAGCGUGGCGGCACCUGCCGCCGGUGGUAAAAAAGAUCGGAAGAGCACACGUCU [U7A U8C G9A U10G U11C C12G C13U] here?
Answer: The value was 1.18.

Question: For GGGUCGACAGCGGAUAAUCGCGUGGAUAUGGCACGCAAGUUUCUACCGGGCACCGUAAAUGUCCGACUGGAGCCGUUCGGGCGGCUAUAAACAGACCUCAGGCCCGAAGCGUGGCGGCACCUGCCGCCGGUGGUAAAAAAGAUCGGAAGAGCACACGUCU [U7A U8C G9A U10G U11C C12G C13G], which “aptazyme ON/OFF ratio” value is on record?
Answer: The value was 1.09.

Question: Which “aptazyme ON/OFF ratio” value does the source give for GGGUCGACAGCAUAUAAUCGCGUGGAUAUGGCACGCAAGUUUCUACCGGGCACCGUAAAUGUCCGACUGGAGCCGUUCGGGCGGCUAUAAACAGACCUCAGGCCCGAAGCGUGGCGGCACCUGCCGCCGGUGGUAAAAAAGAUCGGAAGAGCACACGUCU [U7A U8C G9A U10G U11C C12A C13U] here?
Answer: Its value is 1.23.

Question: Which “aptazyme ON/OFF ratio” value does the source give for GGGUCGACAGCAGAUAAUCGCGUGGAUAUGGCACGCAAGUUUCUACCGGGCACCGUAAAUGUCCGACUGGAGCCGUUCGGGCGGCUAUAAACAGACCUCAGGCCCGAAGCGUGGCGGCACCUGCCGCCGGUGGUAAAAAAGAUCGGAAGAGCACACGUCU [U7A U8C G9A U10G U11C C12A C13G] here?
Answer: Its value is 1.25.

Question: With GGGUCGACAGCAAAUAAUCGCGUGGAUAUGGCACGCAAGUUUCUACCGGGCACCGUAAAUGUCCGACUGGAGCCGUUCGGGCGGCUAUAAACAGACCUCAGGCCCGAAGCGUGGCGGCACCUGCCGCCGGUGGUAAAAAAGAUCGGAAGAGCACACGUCU [U7A U8C G9A U10G U11C C12A C13A] as the variant, how does the “aptazyme ON/OFF ratio” value read?
Answer: Its value is 1.18.

Question: Which “aptazyme ON/OFF ratio” value does the source give for GGGUCGACAGCCGAUAAUCGCGUGGAUAUGGCACGCAAGUUUCUACCGGGCACCGUAAAUGUCCGACUGGAGCCGUUCGGGCGGCUAUAAACAGACCUCAGGCCCGAAGCGUGGCGGCACCUGCCGCCGGUGGUAAAAAAGAUCGGAAGAGCACACGUCU [U7A U8C G9A U10G U11C C13G] here?
Answer: The value was 1.06.

Question: For GGGUCGACAGCCAAUAAUCGCGUGGAUAUGGCACGCAAGUUUCUACCGGGCACCGUAAAUGUCCGACUGGAGCCGUUCGGGCGGCUAUAAACAGACCUCAGGCCCGAAGCGUGGCGGCACCUGCCGCCGGUGGUAAAAAAGAUCGGAAGAGCACACGUCU [U7A U8C G9A U10G U11C C13A], which “aptazyme ON/OFF ratio” value is on record?
Answer: The value was 1.06.

Question: Which “aptazyme ON/OFF ratio” value does the source give for GGGUCGACAGCCUAUAAUCGCGUGGAUAUGGCACGCAAGUUUCUACCGGGCACCGUAAAUGUCCGACUGGAGCCGUUCGGGCGGCUAUAAACAGACCUCAGGCCCGAAGCGUGGCGGCACCUGCCGCCGGUGGUAAAAAAGAUCGGAAGAGCACACGUCU [U7A U8C G9A U10G U11C C13U] here?
Answer: The value was 1.05.
